Five molecules from patent US20230277682A1 (priority 2022, published 2023) can be followed below.

This experiment relates to H1N1 A/Puerto Rico/08/1934 influenza virus. The format is cell-based.

B1: mAb11729 (antibody, V domains shown)
VH: QVQLVQSGAEVKKSGSSVKVSCKASGGTFSSYAISWVRQAPGQGLEWMGGIIPIFGTPSYAQKFQDRVTITTDESTSTVYMELSSLRSEDTAVYYCARQQPVYQYNMDVWGQGTTVTVSS
VL: DIQMTQSPSSLSASVGDRVTITCRASQGIRNNLGWYQQKPLKAPKRLIYAASSLQSGVPSRFSGSGSGTEFTLTISSLQPEDFATYYCLQYNNYPWTFGQGTKVEIK
For the molecule B1, the “antiviral activity against H1N1 in vitro” value is listed as “displays antiviral activity against H1N1 in vitro”.

B2: 11729-HC-Cterm-LLQGA-19b (conjugate)
heavy: QVQLVQSGAEVKKSGSSVKVSCKASGGTFSSYAISWVRQAPGQGLEWMGGIIPIFGTPSYAQKFQDRVTITTDESTSTVYMELSSLRSEDTAVYYCARQQPVYQYNMDVWGQGTTVTVSSLLQGA
VL: B1 VL
modifications: left off: a dimerising Fc or GST
For the molecule B2, the “Fold Increase over Parental Antibody” value is recorded as 15.76 fold.

B3: 11729-HC-Cterm-LLQGA-19C (conjugate)
heavy: B2 heavy
VL: B1 VL
modifications: left off: a dimerising Fc or GST
For B3, the “Fold Increase over Parental Antibody” value was 28.78 fold.

B4: 11729-HC-Cterm-LLQGA-19a (conjugate)
heavy: B2 heavy
VL: B1 VL
modifications: left off: a dimerising Fc or GST
On to B4, for which the “Fold Increase over Parental Antibody” value came out at 7.75 fold.

B5: 11729-HC-Cterm-LLQGA-10b (conjugate)
heavy: B2 heavy
VL: B1 VL
modifications: left off: a dimerising Fc or GST
Take B5: the “Fold Increase over Parental Antibody” value was found to be 6.96 fold.
